From patent publication US20090149389A1 (PURDUE RESEARCH FOUNDATION, published 2009)
Where no end group is shown, it is not given here. [ ]: non-standard residue; d: D form.

Experiments:
MAPKAP kinase II (MK2) [1] = target: T1, MAPKAP kinase II (MK2) (UniProt P49137 1-400, limits assumed); assay: cell-based or functional assay
MAPKAP kinase II (MK2) [2] = target: T1, MAPKAP kinase II (MK2); assay: cell-based or functional assay; remark: listed apart in the source

T1 sequence (P49137 whole entry): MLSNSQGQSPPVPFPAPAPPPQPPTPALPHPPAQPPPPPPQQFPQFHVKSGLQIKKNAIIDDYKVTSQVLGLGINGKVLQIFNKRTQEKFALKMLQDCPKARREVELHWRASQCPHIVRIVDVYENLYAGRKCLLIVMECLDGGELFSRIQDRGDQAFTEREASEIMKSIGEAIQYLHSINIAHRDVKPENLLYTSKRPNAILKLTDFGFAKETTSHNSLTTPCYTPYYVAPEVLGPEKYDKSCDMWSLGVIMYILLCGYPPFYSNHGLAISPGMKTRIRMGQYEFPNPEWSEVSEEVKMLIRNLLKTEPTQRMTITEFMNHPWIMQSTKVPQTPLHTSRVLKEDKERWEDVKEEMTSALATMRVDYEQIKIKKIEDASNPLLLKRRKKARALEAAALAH

B1: WLKKIKAWLKKIKALNRQLGVVA (peptide)
peptide: WLKKIKAWLKKIKALNRQLGVVA
MAPKAP kinase II (MK2) [1]
  % of … [SEQ ID NO: 124] Reaction Velocity at an Inhibitor Concentration of 100 µM: -32%

B2: KALNRQLGAAA (peptide)
peptide: KALNRQLGAAA
MAPKAP kinase II (MK2) [1]
  % of … [SEQ ID NO: 124] Reaction Velocity at an Inhibitor Concentration of 100 µM: 373%

B3: KALNRQdLGVAA (peptide)
peptide: KALNRQ[dL]GVAA
MAPKAP kinase II (MK2) [1]
  % of … [SEQ ID NO: 124] Reaction Velocity at an Inhibitor Concentration of 100 µM: 357%

B4: KKKALNRQLGVAA (peptide)
peptide: KKKALNRQLGVAA
MAPKAP kinase II (MK2) [1]
  % of … [SEQ ID NO: 124] Reaction Velocity at an Inhibitor Concentration of 100 µM: 91%

B5: KALNRQLGVAA (peptide)
peptide: KALNRQLGVAA
MAPKAP kinase II (MK2) [1]
  % of … [SEQ ID NO: 124] Reaction Velocity at an Inhibitor Concentration of 100 µM: 100%

B6: WLRRIKAWLRRIKALARQLAVA (peptide)
peptide: WLRRIKAWLRRIKALARQLAVA
MAPKAP kinase II (MK2) [2]
  % of Blank Reaction Velocity at an Inhibitor Concentration of 6.25pN: 3.3%

B7: WLRRIKAWLRRIKALARQLGVA (peptide)
peptide: WLRRIKAWLRRIKALARQLGVA
MAPKAP kinase II (MK2) [2]
  % of Blank Reaction Velocity at an Inhibitor Concentration of 6.25pN: 3.9%

B8: WLRRIKAWLRRIKALNRQLAVA (peptide)
peptide: WLRRIKAWLRRIKALNRQLAVA
MAPKAP kinase II (MK2) [2]
  % of Blank Reaction Velocity at an Inhibitor Concentration of 6.25pN: -2.1%

B9: KALNRQLGVA (peptide)
peptide: KALNRQLGVA
MAPKAP kinase II (MK2) [1]
  % of … [SEQ ID NO: 124] Reaction Velocity at an Inhibitor Concentration of 100 µM: 100%

B10: WLRRIKAWLRRIKKKALARQLAVA (peptide)
peptide: WLRRIKAWLRRIKKKALARQLAVA
MAPKAP kinase II (MK2) [2]
  % of Blank Reaction Velocity at an Inhibitor Concentration of 6.25pN: 1%

B11: KAANRQLGVAA (peptide)
peptide: KAANRQLGVAA
MAPKAP kinase II (MK2) [1]
  % of … [SEQ ID NO: 124] Reaction Velocity at an Inhibitor Concentration of 100 µM: 152%

B12: KALNAQLGVAA (peptide)
peptide: KALNAQLGVAA
MAPKAP kinase II (MK2) [1]
  % of … [SEQ ID NO: 124] Reaction Velocity at an Inhibitor Concentration of 100 µM: 358%

B13: KALNRALGVAA (peptide)
peptide: KALNRALGVAA
MAPKAP kinase II (MK2) [1]
  % of … [SEQ ID NO: 124] Reaction Velocity at an Inhibitor Concentration of 100 µM: 358%

B14: KALNRQAGVAA (peptide)
peptide: KALNRQAGVAA
MAPKAP kinase II (MK2) [1]
  % of … [SEQ ID NO: 124] Reaction Velocity at an Inhibitor Concentration of 100 µM: 118%

B15: KALNRQLAVAA (peptide)
peptide: KALNRQLAVAA
MAPKAP kinase II (MK2) [1]
  % of … [SEQ ID NO: 124] Reaction Velocity at an Inhibitor Concentration of 100 µM: 72%
